This note sets out measurements from FireProtDB (doi:10.1182/blood-2007-11-122457).

In general, Tm refers to the temperature at which the thermal transition is half complete.

The conditions of the data set: Homo sapiens; pH 7.4; Thermal; DSC; Sodium phosphate 10mM; NaCl 130 mM; transition: 2; reversible: yes; structure 1OWA.
In the case of “Spectrin alpha chain, erythrocytic 1, P02549 G46V”, the midpoint of thermal melting (Tm) turned out to be 52.8 °C and the “change of melting temperature, mutant - wild type (higher = more stable)” value (from here on “change of melting temperature, mutant”) was -1.8 °C.
For “Spectrin alpha chain, erythrocytic 1, P02549 I24S”, the Tm stood at 53.2 °C and the “change of melting temperature, mutant” value was -1.4 °C.
For “Spectrin alpha chain, erythrocytic 1, P02549 I24T”, in that order: 54.4 °C and -0.2 °C.
The corresponding values for “Spectrin alpha chain, erythrocytic 1, P02549 K48R” are 54.7 °C and 0.1 °C.
For “Spectrin alpha chain, erythrocytic 1, P02549 L49F”, the midpoint of thermal melting (Tm) amounted to 55.4 °C and the “change of melting temperature, mutant” value is 0.8 °C.
As for “Spectrin alpha chain, erythrocytic 1, P02549 R28H”, the midpoint of thermal melting (Tm) came to 53.6 °C and the “change of melting temperature, mutant” value is -1 °C.
For the substance “Spectrin alpha chain, erythrocytic 1, P02549 R28L”, the Tm came out at 53.1 °C and the “change of melting temperature, mutant” value was -1.5 °C.
Consider “Spectrin alpha chain, erythrocytic 1, P02549 R28S”, for which the Tm amounted to 53.3 °C and the “change of melting temperature, mutant” value is -1.3 °C.
Consider “Spectrin alpha chain, erythrocytic 1, P02549 R34W”, for which the Tm is 49.1 °C and the “change of melting temperature, mutant” value is -5.5 °C.
“Spectrin alpha chain, erythrocytic 1, P02549 R45S”: the Tm is 55.1 °C and the “change of melting temperature, mutant” value amounted to 0.5 °C.
Take “Spectrin alpha chain, erythrocytic 1, P02549 R45T”: the Tm turned out to be 54.6 °C and the “change of melting temperature, mutant” value was 0 °C.
On to “Spectrin alpha chain, erythrocytic 1, P02549 V31A”, for which the Tm worked out at 54.5 °C and the “change of melting temperature, mutant” value was -0.1 °C.
